This passage reports binding result and Kd results from patent publication US20220251194A1 (Merck Sharp & Dohme, published 2022).

Where a chain is given by its changes, count along the chain named. Names and notes keep the numbering of the source.

Assay [1] concerns the target T1, human PD1 on PathHunter U2OS dimer cells (human, UniProt Q15116 25-288).
T1 construct: whole, on cells; On Human PD1/LAG3 dimer cell Clone #9 (Lot 56AUA) and Human PD1/TIGIT dimer cell Clone #5 (Lot 14BAU); also called hPD1; not shown: beta-galactosidase fragment (ProLink or Enzyme Acceptor)
As to the kind of experiment: PathHunter dimerization assay, U2OS cells co-expressing human PD1 and LAG3; the signal needs both targets to be bound on the same cell.

Assay [2] deals with T2, Human PD1 (50AFR), [VEGF leader]-Sino-Bio-PD-1_H-[His9G] (human, UniProt Q15116 25-167).
T2 construct: Expressed with a VEGF leader; also called PD-1-His (50AFR)
T2 sequence (Q15116 25-167): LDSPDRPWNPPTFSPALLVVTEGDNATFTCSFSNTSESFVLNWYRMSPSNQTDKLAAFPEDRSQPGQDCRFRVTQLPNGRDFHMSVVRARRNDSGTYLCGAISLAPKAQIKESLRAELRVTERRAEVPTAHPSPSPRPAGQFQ
As to the kind of experiment: SPR (Biacore T200 or 4000), antibody captured via anti-human Fc, antigen as analyte. The procedure: (§1) Binding affinities were measured using a Biacore T200 or Biacore 4000 biosensor (GE Healthcare, Chicago, Ill.). The following running buffer, 10 mM HEPES, 150 mM NaCl, 0.05% v/v Surfactant P20, 3 mM EDTA (GE Healthcare, BR100669, Chicago, Ill.), was used for immobilization, sample dilution and data collection. All experiments were performed at 25° C. Antigen binding to antibodies captured via an anti-human Fc antibody was measured using a Series S Sensor Chip CM5 (GE Healthcare, 29149603, Chicago, Ill.). An anti-human Fc antibody was immobilized on all surfaces of the chip according to the instructions in the Human Antibody Capture Kit (GE Healthcare, BR100839, Chicago, Ill.) and the Amine Coupling Kit (GE Healthcare, BR100633, Chicago, Ill.). […] After the antigen injections the dissociation of the interaction was monitored for 15 minutes. Between binding cycles the antibody and antigen were removed from the chip with a 30 second injection of 3 M MgCl₂.
(§2) The data were processed and fit using Biacore T200 Evaluation Software version 2.0 or Biacore 4000 Evaluation Software version 1.1 (GE Healthcare, Chicago, Ill.). The data were “double referenced” by subtracting the response from a negative control flowcell and subtracting the response from a buffer injection or the average response from two buffer injections. The data were then fit with the ‘1:1 Binding’ model to determine the association rate constant, kₐ (M⁻¹s⁻¹, where “M” equals molar and “s” equals seconds) and the dissociation rate constant, kd (s⁻¹). These rate constants were used to calculate the equilibrium dissociation constant, KD (M)=[…].

The target in assay [3] is T3, human LAG-3 (60AXE) (human, UniProt P18627 23-450, limits assumed).
T3 construct: Lot 60AXE is not described further
T3 sequence (looked up): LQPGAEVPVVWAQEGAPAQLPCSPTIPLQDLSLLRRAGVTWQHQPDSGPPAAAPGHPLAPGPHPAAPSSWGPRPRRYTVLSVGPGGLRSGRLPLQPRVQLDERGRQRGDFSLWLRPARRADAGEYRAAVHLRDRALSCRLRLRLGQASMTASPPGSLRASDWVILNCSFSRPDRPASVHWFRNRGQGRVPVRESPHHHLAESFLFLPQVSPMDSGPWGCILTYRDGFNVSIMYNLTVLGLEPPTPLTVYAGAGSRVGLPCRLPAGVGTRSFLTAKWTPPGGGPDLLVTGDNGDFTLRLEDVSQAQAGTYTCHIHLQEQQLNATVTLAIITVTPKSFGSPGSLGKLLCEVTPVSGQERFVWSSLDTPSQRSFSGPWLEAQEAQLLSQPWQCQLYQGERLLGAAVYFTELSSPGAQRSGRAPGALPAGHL
The assay is described as above. The procedure: as §1, §2

Assay [4] addresses T4, human TIGIT (94AGV) (human, UniProt Q495A1 22-141, limits assumed).
T4 construct: Lot 94AGV is not described further
T4 sequence (looked up): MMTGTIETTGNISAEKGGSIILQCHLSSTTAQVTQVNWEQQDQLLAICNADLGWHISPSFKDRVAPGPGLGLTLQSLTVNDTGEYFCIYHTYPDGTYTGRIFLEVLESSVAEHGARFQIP
The description is as above. The procedure:
as §1, §2

As a reminder, the Kd is the equilibrium constant for the complex coming apart. Low readings indicate tighter binding, high ones weaker binding.

T1 sequence (Q15116 25-288): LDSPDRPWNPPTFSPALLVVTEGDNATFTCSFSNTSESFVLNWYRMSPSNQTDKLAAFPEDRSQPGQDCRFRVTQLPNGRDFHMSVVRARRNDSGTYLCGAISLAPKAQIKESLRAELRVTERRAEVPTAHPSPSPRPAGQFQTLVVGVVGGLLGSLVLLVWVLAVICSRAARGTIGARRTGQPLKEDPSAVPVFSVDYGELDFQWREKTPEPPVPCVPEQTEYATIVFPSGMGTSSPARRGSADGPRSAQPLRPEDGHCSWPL

B1: Humanized x [LAG3_H][TIGIT_H] BsAb (22D2 VH6 C-term 31C6 scFv VL-VH / VL3 Y31W) IgG1 L234A L235A D265S / Kappa (Lot 80BCK) (bispecific antibody)
heavy: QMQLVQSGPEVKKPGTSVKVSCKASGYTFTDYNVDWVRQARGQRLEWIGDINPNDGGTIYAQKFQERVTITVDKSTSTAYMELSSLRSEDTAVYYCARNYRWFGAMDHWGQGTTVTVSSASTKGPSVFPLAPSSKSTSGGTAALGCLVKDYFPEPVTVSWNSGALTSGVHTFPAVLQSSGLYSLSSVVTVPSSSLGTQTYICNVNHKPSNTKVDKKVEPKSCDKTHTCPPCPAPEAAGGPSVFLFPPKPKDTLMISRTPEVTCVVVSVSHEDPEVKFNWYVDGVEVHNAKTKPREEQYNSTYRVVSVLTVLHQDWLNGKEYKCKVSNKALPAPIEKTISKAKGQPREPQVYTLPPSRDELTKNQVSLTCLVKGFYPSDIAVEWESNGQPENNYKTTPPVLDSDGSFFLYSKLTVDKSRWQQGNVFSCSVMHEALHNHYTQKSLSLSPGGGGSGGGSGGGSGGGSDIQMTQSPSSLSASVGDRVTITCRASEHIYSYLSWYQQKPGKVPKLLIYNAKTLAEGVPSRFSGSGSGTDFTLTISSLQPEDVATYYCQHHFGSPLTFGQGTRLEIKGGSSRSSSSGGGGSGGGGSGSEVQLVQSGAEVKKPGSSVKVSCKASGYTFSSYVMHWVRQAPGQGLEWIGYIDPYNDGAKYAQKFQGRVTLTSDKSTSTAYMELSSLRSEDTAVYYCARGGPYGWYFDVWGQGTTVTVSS
light: DIVMTQTPLSLSVTPGQPASISCKASQSLDWEGDSDMNWYLQKPGQPPQLLIYGASNLESGVPDRFSGSGSGTDFTLKISRVEAEDVGVYYCQQSTEDPRTFGGGTKVEIKRTVAAPSVFIFPPSDEQLKSGTASVVCLLNNFYPREAKVQWKVDNALQSGNSQESVTEQDSKDSTYSLSSTLTLSKADYEKHKVYACEVTHQGLSSPVTKSFNRGEC
notes: Anti-LAG3 IgG1 with an anti-TIGIT scFv at the C-terminus of the heavy chain; also called 80BCK (control); Hz x Hu [LAG3]; [TIGIT]; BsAb (Y31W)
In the case of B1, the binding result in assay [1] is on record as “no binding”.

B2: anti-PD-1/LAG-3/TIGIT trispecific antibody (TsAbY31W) (Lot 30BCM) (other)
heavy 1: EVQLVQSGAEVKKPGASVKVSCKASGYTFTSYYLYWVRQAPGQGLEWIGGVNPSNAGTNFNEKFKSRVTLTVDTSISTAYMELSRLRSDDTAVYYCTRRLSHYDGGFDYWGQGTTVTVSSASTKGPSVFPLAPSSKSTSGGTAALGCEVTDYFPEPVTVSWNSGALTSGVHTFPAVLESSGLYSLLSVVTVPSSSLGTQTYICNVNHKPSNTKVDKKVEPKSCDKTHTCPPCPAPEAAGGPSVFLFPPKPKDTLMISRTPEVTCVVVSVSHEDPEVKFNWYVDGVEVHNAKTKPREEQYNSTYRVVSVLTVLHQDWLNGKEYKCKVSNKALPAPIEKTISKAKGQPREPQVYVYPPSRDELTKNQVSLTCLVKGFYPSDIAVEWESNGQPENNYKTTPPVLDSDGSFALVSKLTVDKSRWQQGNVFSCSVMHEALHNHYTQKSLSLSPGGGGSGGGSGGGSGGGSDIQMTQSPSSLSASVGDRVTITCRASEHIYSYLSWYQQKPGKVPKLLIYNAKTLAEGVPSRFSGSGSGTDFTLTISSLQPEDVATYYCQHHFGSPLTFGQGTRLEIKGGSSRSSSSGGGGSGGGGSGSEVQLVQSGAEVKKPGSSVKVSCKASGYTFSSYVMHWVRQAPGQGLEWIGYIDPYNDGAKYAQKFQGRVTLTSDKSTSTAYMELSSLRSEDTAVYYCARGGPYGWYFDVWGQGTTVTVSS
light 1: DIVMTQTPLSLSVTPGQPASISCRASKSVSTSGFSYLHWYLQKPGQPPQLLIFLSKYRSSGVPDRFSGSGSGTDFTLKISRVEAEDVGVYYCSQAYHLPLTFGQGTKLEIKRTVAAPSVFIFPPSDERLKSGTASVVCLLNNFYPREAKVQWKVDNALQSGNSQESVTEQDSKDSTYSLSSRLTLSKADYEKHKVYACEVTHQGLSSPVTKSFNRGEC
heavy 2: QMQLVQSGPEVKKPGTSVKVSCKASGYTFTDYNVDWVRQARGQRLEWIGDINPNDGGTIYAQKFQERVTITVDKSTSTAYMELSSLRSEDTAVYYCARNYRWFGAMDHWGQGTTVTVSSASTKGPSVFPLAPSSKSTSGGTAALGCLVKDYFPEPVTVSWNSGALTSGVHTFPAVLQSSGLYKLSSVVTVPSSSLGTQTYICNVNHKPSNTKVDKKVEPKSCDKTHTCPPCPAPEAAGGPSVFLFPPKPKDTLMISRTPEVTCVVVSVSHEDPEVKFNWYVDGVEVHNAKTKPREEQYNSTYRVVSVLTVLHQDWLNGKEYKCKVSNKALPAPIEKTISKAKGQPREPQVYVLPPSRDELTKNQVSLLCLVKGFYPSDIAVEWESNGQPENNYLTWPPVLDSDGSFFLYSKLTVDKSRWQQGNVFSCSVMHEALHNHYTQKSLSLSPGGGGSGGGSGGGSGGGSDIQMTQSPSSLSASVGDRVTITCRASEHIYSYLSWYQQKPGKVPKLLIYNAKTLAEGVPSRFSGSGSGTDFTLTISSLQPEDVATYYCQHHFGSPLTFGQGTRLEIKGGSSRSSSSGGGGSGGGGSGSEVQLVQSGAEVKKPGSSVKVSCKASGYTFSSYVMHWVRQAPGQGLEWIGYIDPYNDGAKYAQKFQGRVTLTSDKSTSTAYMELSSLRSEDTAVYYCARGGPYGWYFDVWGQGTTVTVSS
light 2: B1 light with Q128E, S135T, T182Y, T184E
notes: Trispecific heterodimeric IgG1 / kappa; also called Y31W mutant; Hz x Hu [PD-1]; [TIGIT]; [LAG3]; TsAb (Y31W)
Regarding B2, the Kd is 0.289 nM in assay [2], 0.023 nM in assay [3] and 1.09 nM in assay [4].
